US20190241648A1 (STATEN BIOTECHNOLOGY B V, published 2019)
Ends that are not written are not given here.

Legend:
Assay in all cases: peptide microarray
ApoC3 peptide … T44A = molecular target: T1, ApoC3 peptide … T44A (human, not fully specified (bridges); also: cyclic constrained)
T1 peptide: ARGWVADGFSSLK
Source text: (§1) Amino acids G41 and G46 were highly conserved; substitution of G41 by E, N or Q caused a decrease of spot intensities by ˜70% or higher, whereas exchange of G46 by N was hardly tolerated and resulting in 90% reduced spot intensities. […] Amino acid positions V43, D45 and K51 were also well conserved with a clear preference for the wild type amino acids and a certain tolerance particularly for conservative exchanges by Y, F and I (V43), A, E and K (D45) as well as by R (K51). […] Replacement of V43 by Y, however, increased spot intensity by two fold. Amino acid positions W42 and 48S were poorly conserved or even variable; both positions were susceptible for only a number of amino acid exchanges, and exchange by F, S and T (W42) or by E (S48) even caused a two- to three-fold increase of spot intensity. Amino acid positions A39 and R40 were variable.
(§2) Pre: staining of one of the ApoC3 peptide microarrays was done with the secondary antibody goat anti-human IgG (Fe) DyLight680 (1:5000) and control antibody mouse monoclonal anti-HA (12CA5) DyLight800 (1:2000) to investigate background interactions of the secondary antibody with the antigen-derived peptides that could interfere with the main assays. Subsequent incubation of other ApoC3 peptide microarrays with antibody samples was followed by staining with secondary and control antibodies as well as read-out at scanning intensities of 7/7 (red/green). The additional HA peptides framing the peptide arrays were stained as internal quality control to confirm the assay quality and the peptide microarray integrity.

ApoC3 peptide … S49A = molecular target: T2, ApoC3 peptide … S49A (human, not fully specified (bridges); also: cyclic constrained)
T2 peptide: ARGWVTDGFSALK
Source text: as §1, §2

ApoC3 peptide … A39C = molecular target: T3, ApoC3 peptide … A39C (human, cyclic constrained)
T3 peptide: CRGWVTDGFSSLK
Source text: as §1, §2

ApoC3 peptide … R40D = molecular target: T4, ApoC3 peptide … R40D (human, not fully specified (bridges); also: cyclic constrained)
T4 peptide: ADGWVTDGFSSLK
Source text: as §1, §2

ApoC3 peptide … W42D = molecular target: T5, ApoC3 peptide … W42D (human, not fully specified (bridges); also: cyclic constrained)
T5 peptide: ARGDVTDGFSSLK
Source text: as §1, §2

ApoC3 peptide … S49D = ApoC3 peptide … S49D (human, cyclic constrained)
Source text: as §1, §2

ApoC3 peptide … V43E = molecular target: T6, ApoC3 peptide … V43E (human, not fully specified; cyclic constrained)
T6 peptide: ARGWETDGFSSLK
Source text: as §1, §2

ApoC3 peptide … L50E = molecular target: T7, ApoC3 peptide … L50E (human, not fully specified; cyclic constrained)
T7 peptide: ARGWVTDGFSSEK
Source text: as §1, §2

ApoC3 peptide … K51E = molecular target: T8, ApoC3 peptide … K51E (human, thioether (positions not given here); also: cyclic constrained)
T8 peptide: ARGWVTDGFSSLE
Source text: as §1, §2

ApoC3 peptide … V43G = molecular target: T9, ApoC3 peptide … V43G (human, not fully specified; cyclic constrained)
T9 peptide: ARGWGTDGFSSLK
Source text: as §1, §2

ApoC3 peptide … T44G = molecular target: T10, ApoC3 peptide … T44G (human, not fully specified (bridges); also: cyclic constrained)
T10 peptide: ARGWVGDGFSSLK
Source text: as §1, §2

ApoC3 peptide … L50G = molecular target: T11, ApoC3 peptide … L50G (human, not fully specified; cyclic constrained)
T11 peptide: ARGWVTDGFSSGK
Source text: as §1, §2

ApoC3 peptide … S48H = ApoC3 peptide … S48H (human, cyclic constrained)
Source text: as §1, §2

ApoC3 peptide … D45K = molecular target: T12, ApoC3 peptide … D45K (human, cyclic constrained)
T12 peptide: ARGWVTKGFSSLK
Source text: as §1, §2

ApoC3 peptide … L50K = molecular target: T13, ApoC3 peptide … L50K (human, not fully specified; cyclic constrained)
T13 peptide: ARGWVTDGFSSKK
Source text: as §1, §2

ApoC3 peptide … G46L = molecular target: T14, ApoC3 peptide … G46L (human, not fully specified (bridges); also: cyclic constrained)
T14 peptide: ARGWVTDLFSSLK
Source text: as §1, §2

ApoC3 peptide … W42M = molecular target: T15, ApoC3 peptide … W42M (human, not fully specified (bridges); also: cyclic constrained)
T15 peptide: ARGMVTDGFSSLK
Source text: as §1, §2

ApoC3 peptide … D45M = molecular target: T16, ApoC3 peptide … D45M (human, cyclic constrained)
T16 peptide: ARGWVTMGFSSLK
Source text: as §1, §2

ApoC3 peptide … G46M = molecular target: T17, ApoC3 peptide … G46M (human, not fully specified (bridges); also: cyclic constrained)
T17 peptide: ARGWVTDMFSSLK
Source text: as §1, §2

ApoC3 peptide … S49M = molecular target: T18, ApoC3 peptide … S49M (human, cyclic constrained)
T18 peptide: ARGWVTDGFSMLK
Source text: as §1, §2

ApoC3 peptide … R40N = molecular target: T19, ApoC3 peptide … R40N (human, not fully specified (bridges); also: cyclic constrained)
T19 peptide: ANGWVTDGFSSLK
Source text: as §1, §2

ApoC3 peptide … S49N = molecular target: T20, ApoC3 peptide … S49N (human, cyclic constrained)
T20 peptide: ARGWVTDGFSNLK
Source text: as §1, §2

ApoC3 peptide … K51Q = molecular target: T21, ApoC3 peptide … K51Q (human, not fully specified; cyclic constrained)
T21 peptide: ARGWVTDGFSSLQ
Source text: as §1, §2

ApoC3 peptide … A39S = molecular target: T22, ApoC3 peptide … A39S (human, not fully specified (bridges); also: cyclic constrained)
T22 peptide: SRGWVTDGFSSLK
Source text: as §1, §2

ApoC3 peptide … R40S = molecular target: T23, ApoC3 peptide … R40S (human, not fully specified (bridges); also: cyclic constrained)
T23 peptide: ASGWVTDGFSSLK
Source text: as §1, §2

ApoC3 peptide … W42S = molecular target: T24, ApoC3 peptide … W42S (human, not fully specified (bridges); also: cyclic constrained)
T24 peptide: ARGSVTDGFSSLK
Source text: as §1, §2

ApoC3 peptide … K51S = molecular target: T25, ApoC3 peptide … K51S (human, not fully specified; cyclic constrained)
T25 peptide: ARGWVTDGFSSLS
Source text: as §1, §2

ApoC3 peptide … A39T = molecular target: T26, ApoC3 peptide … A39T (human, not fully specified (bridges); also: cyclic constrained)
T26 peptide: TRGWVTDGFSSLK
Source text: as §1, §2

ApoC3 peptide … S48T = ApoC3 peptide … S48T (human, cyclic constrained)
Source text: as §1, §2

ApoC3 peptide … F47V = molecular target: T27, ApoC3 peptide … F47V (human, also: cyclic constrained)
T27 peptide: ARGWVTDGVSSLK
Source text: as §1, §2

ApoC3 peptide … S48V = ApoC3 peptide … S48V (human, cyclic constrained)
Source text: as §1, §2

% of binding to wild-type peptide (ApoC3 peptide … T44A): 0%
% of binding to wild-type peptide (ApoC3 peptide … S49A): 2.43%
% of binding to wild-type peptide (ApoC3 peptide … A39C): 77.5%
% of binding to wild-type peptide (ApoC3 peptide … R40D): 50%
% of binding to wild-type peptide (ApoC3 peptide … W42D): 108%
% of binding to wild-type peptide (ApoC3 peptide … S49D): 0%
% of binding to wild-type peptide (ApoC3 peptide … V43E): 0%
% of binding to wild-type peptide (ApoC3 peptide … L50E): 0%
% of binding to wild-type peptide (ApoC3 peptide … K51E): 4.71%
% of binding to wild-type peptide (ApoC3 peptide … V43G): 0.12%
% of binding to wild-type peptide (ApoC3 peptide … T44G): 0%
% of binding to wild-type peptide (ApoC3 peptide … L50G): 0%
% of binding to wild-type peptide (ApoC3 peptide … S48H): 11.5%
% of binding to wild-type peptide (ApoC3 peptide … D45K): 39.4%
% of binding to wild-type peptide (ApoC3 peptide … L50K): 0.74%
% of binding to wild-type peptide (ApoC3 peptide … G46L): 0%
% of binding to wild-type peptide (ApoC3 peptide … W42M): 79.4%
% of binding to wild-type peptide (ApoC3 peptide … D45M): 21%
% of binding to wild-type peptide (ApoC3 peptide … G46M): 0%
% of binding to wild-type peptide (ApoC3 peptide … S49M): 1.86%
% of binding to wild-type peptide (ApoC3 peptide … R40N): 64.8%
% of binding to wild-type peptide (ApoC3 peptide … S49N): 0%
% of binding to wild-type peptide (ApoC3 peptide … K51Q): 5.47%
% of binding to wild-type peptide (ApoC3 peptide … A39S): 81.4%
% of binding to wild-type peptide (ApoC3 peptide … R40S): 54.7%
% of binding to wild-type peptide (ApoC3 peptide … W42S): 204%
% of binding to wild-type peptide (ApoC3 peptide … K51S): 27.5%
% of binding to wild-type peptide (ApoC3 peptide … A39T): 88.7%
% of binding to wild-type peptide (ApoC3 peptide … S48T): 88.3%
% of binding to wild-type peptide (ApoC3 peptide … F47V): 0.06%
% of binding to wild-type peptide (ApoC3 peptide … S48V): 45.3%
B1: anti-ApoC3 antibody 14C7 (antibody, V domains shown)
VH: QVQVQESGPGLVKPSQTLSLTCTVSGGSITTNSYYWSWIRQPPGKGLEWMGAIDYSGDTYYSPSLKSRTSISRDTSKNQFTLQLTSVTPEDTAVYYCVSRIPTGEYWGQGTQVTVSS
VL: QTVVTQEPSLSVSPGGTVTLTCGLNSGSVTSSNYPDWYQQTPGQAPRLLIYNTNSRHSGVPSRFSGSISGNKAALTITGAQPEDEADYYCALYMGSDSVVFGGGTHLTVL
notes: it was detected with goat anti-human IgG (Fc); also called mAb 14C7; llama antibody 14C7
